Results published in patent US20260242478A1 (published 2026).
Where no end group is shown, it is not given here.

target: T1, Anti-PSMA Fab (SEQ ID NOs: 19, 20); assay: phage binding ELISA; biotinylated anti-PSMA Fab captured on neutravidin plate, clonal phage supernatant, anti-M13 HRP detection
T1 construct: Biotinylated and captured on neutravidin coated plates in the phage ELISA; also called 006 PSMA Fab

Binder | Anti-PSMA Fab (SEQ ID NOs: 19, 20) signal
FCNWVDGDVWVVCK (tested as crude phage supernatant) [Phage-1734 (clonal phage displaying the peptide of SEQ ID NO: 2018)] | 0.51
EGCLTLVDGRAWCW (tested as crude phage supernatant) [Phage-1735 (clonal phage displaying the peptide of SEQ ID NO: 2019)] | 1.05
MEYCSFHRFTCVLW (tested as crude phage supernatant) [Phage-1736 (clonal phage displaying the peptide of SEQ ID NO: 2020)] | 1.74
HCKFHDYHSWYMCY (tested as crude phage supernatant) [Phage-1737 (clonal phage displaying the peptide of SEQ ID NO: 2021)] | 1.58
ACHSLVLKHHLQKC (tested as crude phage supernatant) [Phage-1738 (clonal phage displaying the peptide of SEQ ID NO: 2022)] | 1.18
SCGWLRGEEFGWWC (tested as crude phage supernatant) [Phage-1739 (clonal phage displaying the peptide of SEQ ID NO: 2023)] | 0.891
PDCVYHSFWGYSCR (tested as crude phage supernatant) [Phage-1740 (clonal phage displaying the peptide of SEQ ID NO: 2024)] | 0.583
FVPCIPSHWLCPIW (tested as crude phage supernatant) [Phage-1741 (clonal phage displaying the peptide of SEQ ID NO: 2037)] | 1.05

target: Ab-15; assay: BLI (Octet): sensor loaded with 200 nM biotinylated peptide, 100 nM Ab-15;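 note: binding association and dissociation tracked in real time, fitted to a 1:1 binding model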

Binder | Octet signal | t1/2 [min]
ADWCPRDLWVHCFA (cysteine pairing not given here; also: biotinylated, site not given here, CD28 peptide mask) [Peptide-52] | 0.7 | 3.1
NDWCPRDLWVHCFA (cysteine pairing not given here; also: biotinylated, site not given here, CD28 peptide mask) [Peptide-54] | 0.434 | 4
DDWCPRDLWVHCFA (cysteine pairing not given here; also: biotinylated, site not given here, CD28 peptide mask) [Peptide-55] | 0.461 | 4.2
GDWCPRDLWVHCFA (cysteine pairing not given here; also: biotinylated, site not given here, CD28 peptide mask) [Peptide-58] | 0.479 | 3.9
HDWCPRDLWVHCFA (cysteine pairing not given here; also: biotinylated, site not given here, CD28 peptide mask) [Peptide-59] | 0.737 | 3
IDWCPRDLWVHCFA (cysteine pairing not given here; also: biotinylated, site not given here, CD28 peptide mask) [Peptide-60] | 0.845 | 3.1
LDWCPRDLWVHCFA (cysteine pairing not given here; also: biotinylated, site not given here, CD28 peptide mask) [Peptide-61] | 1.37 | 4.5
FDWCPRDLWVHCFA (cysteine pairing not given here; also: biotinylated, site not given here, CD28 peptide mask) [Peptide-63] | 1.01 | 3.3
PDWCPRDLWVHCFA (cysteine pairing not given here; also: biotinylated, site not given here, CD28 peptide mask) [Peptide-64] | 0.328 | 3.4
SDWCPRDLWVHCFA (cysteine pairing not given here; also: biotinylated, site not given here, CD28 peptide mask) [Peptide-65] | 0.551 | 2.9
WDWCPRDLWVHCFA (cysteine pairing not given here; also: biotinylated, site not given here, CD28 peptide mask) [Peptide-67] | 1.15 | 4.1
YDWCPRDLWVHCFA (cysteine pairing not given here; also: biotinylated, site not given here, CD28 peptide mask) [Peptide-68] | 0.849 | 2.9
VDWCPRDLWVHCFA (cysteine pairing not given here; also: biotinylated, site not given here, CD28 peptide mask) [Peptide-69] | 0.919 | 2.9

target: Ab-15; assay: competition ELISA: peptide titrated against 1 nM Ab-15; competitor plate-bound CD28

Binder | IC50 [nM]
ADWCPRDLWVHCFA (cysteine pairing not given here; also: biotinylated, site not given here, CD28 peptide mask) [Peptide-52] | 2000
NDWCPRDLWVHCFA (cysteine pairing not given here; also: biotinylated, site not given here, CD28 peptide mask) [Peptide-54] | 5030
DDWCPRDLWVHCFA (cysteine pairing not given here; also: biotinylated, site not given here, CD28 peptide mask) [Peptide-55] | 4460
GDWCPRDLWVHCFA (cysteine pairing not given here; also: biotinylated, site not given here, CD28 peptide mask) [Peptide-58] | 7060
HDWCPRDLWVHCFA (cysteine pairing not given here; also: biotinylated, site not given here, CD28 peptide mask) [Peptide-59] | 2180
IDWCPRDLWVHCFA (cysteine pairing not given here; also: biotinylated, site not given here, CD28 peptide mask) [Peptide-60] | 2660
LDWCPRDLWVHCFA (cysteine pairing not given here; also: biotinylated, site not given here, CD28 peptide mask) [Peptide-61] | 630
FDWCPRDLWVHCFA (cysteine pairing not given here; also: biotinylated, site not given here, CD28 peptide mask) [Peptide-63] | 780
PDWCPRDLWVHCFA (cysteine pairing not given here; also: biotinylated, site not given here, CD28 peptide mask) [Peptide-64] | 8340
SDWCPRDLWVHCFA (cysteine pairing not given here; also: biotinylated, site not given here, CD28 peptide mask) [Peptide-65] | 2630
WDWCPRDLWVHCFA (cysteine pairing not given here; also: biotinylated, site not given here, CD28 peptide mask) [Peptide-67] | 2800
YDWCPRDLWVHCFA (cysteine pairing not given here; also: biotinylated, site not given here, CD28 peptide mask) [Peptide-68] | 3250
VDWCPRDLWVHCFA (cysteine pairing not given here; also: biotinylated, site not given here, CD28 peptide mask) [Peptide-69] | 4420

target: Ab-15; assay: binding ELISA: biotinylated peptide on neutravidin plate, Ab-15 titrated

Binder | EC50 [nM]
ADWCPRDLWVHCFA (cysteine pairing not given here; also: biotinylated, site not given here, CD28 peptide mask) [Peptide-52] | 75.9
NDWCPRDLWVHCFA (cysteine pairing not given here; also: biotinylated, site not given here, CD28 peptide mask) [Peptide-54] | 84.3
DDWCPRDLWVHCFA (cysteine pairing not given here; also: biotinylated, site not given here, CD28 peptide mask) [Peptide-55] | 86.8
GDWCPRDLWVHCFA (cysteine pairing not given here; also: biotinylated, site not given here, CD28 peptide mask) [Peptide-58] | 73.9
HDWCPRDLWVHCFA (cysteine pairing not given here; also: biotinylated, site not given here, CD28 peptide mask) [Peptide-59] | 45.4
IDWCPRDLWVHCFA (cysteine pairing not given here; also: biotinylated, site not given here, CD28 peptide mask) [Peptide-60] | 44.9
LDWCPRDLWVHCFA (cysteine pairing not given here; also: biotinylated, site not given here, CD28 peptide mask) [Peptide-61] | 23.4
FDWCPRDLWVHCFA (cysteine pairing not given here; also: biotinylated, site not given here, CD28 peptide mask) [Peptide-63] | 39.3
PDWCPRDLWVHCFA (cysteine pairing not given here; also: biotinylated, site not given here, CD28 peptide mask) [Peptide-64] | 102
SDWCPRDLWVHCFA (cysteine pairing not given here; also: biotinylated, site not given here, CD28 peptide mask) [Peptide-65] | 66.5
WDWCPRDLWVHCFA (cysteine pairing not given here; also: biotinylated, site not given here, CD28 peptide mask) [Peptide-67] | 21.7
YDWCPRDLWVHCFA (cysteine pairing not given here; also: biotinylated, site not given here, CD28 peptide mask) [Peptide-68] | 32.2
VDWCPRDLWVHCFA (cysteine pairing not given here; also: biotinylated, site not given here, CD28 peptide mask) [Peptide-69] | 32.5

target: anti-CD28 Fab; assay: competition ELISA, peptide titrated 0-100 uM against 1 nM anti-CD28 Fab, plate-bound CD28 as competitor

Binder | IC50 [nM]
TCSAGATWPWPICL [Peptide-137] | 890
LCAAGASWPWPVCL [Peptide-138] | 3610
TCSAGASYPWPLCL [Peptide-139] | 2190
TCSAGAAYPWPLCL [Peptide-145] | 7700
TCAAGAAWPWPQCL [Peptide-140] | 760
TCSAGATYTWPKCF [Peptide-141] | 2220
TCAAGATWSWPACF [Peptide-142] | 620
TCAAGAAWGWPLCF [Peptide-143] | 2560
LCAAGATYPWPLCL [Peptide-144] | 3040
LCAAGATYPWPTCL [Peptide-147] | 8150
TCSAGAAYSWPACF [Peptide-146] | 16100
SCSAGAHYPWPQCF [Peptide-148] | 5670

target: T1, Anti-PSMA Fab (SEQ ID NOs: 19, 20); assay: phage binding ELISA; Fab-coated wells pre-incubated with PSMA antigen (competitor: PSMA), then clonal phage, anti-M13 HRP detection

Binder | Anti-PSMA Fab signal in the presence of PSMA
FCNWVDGDVWVVCK (tested as crude phage supernatant) [Phage-1734 (clonal phage displaying the peptide of SEQ ID NO: 2018)] | 0.0607
EGCLTLVDGRAWCW (tested as crude phage supernatant) [Phage-1735 (clonal phage displaying the peptide of SEQ ID NO: 2019)] | 0.0521
MEYCSFHRFTCVLW (tested as crude phage supernatant) [Phage-1736 (clonal phage displaying the peptide of SEQ ID NO: 2020)] | 0.12
HCKFHDYHSWYMCY (tested as crude phage supernatant) [Phage-1737 (clonal phage displaying the peptide of SEQ ID NO: 2021)] | 0.117
ACHSLVLKHHLQKC (tested as crude phage supernatant) [Phage-1738 (clonal phage displaying the peptide of SEQ ID NO: 2022)] | 0.0624
SCGWLRGEEFGWWC (tested as crude phage supernatant) [Phage-1739 (clonal phage displaying the peptide of SEQ ID NO: 2023)] | 0.0625
PDCVYHSFWGYSCR (tested as crude phage supernatant) [Phage-1740 (clonal phage displaying the peptide of SEQ ID NO: 2024)] | 0.0641
FVPCIPSHWLCPIW (tested as crude phage supernatant) [Phage-1741 (clonal phage displaying the peptide of SEQ ID NO: 2037)] | 0.292
